Measured values: PMC13190736

B1: Nb C107 (VHH)
VHH: QVQLVESGGGLVQPGGSLRLSCAPSGSTSGIYASGWYRQVPGKPQEWLADISRGGSTKYADSVKGRFTISRDNAKNTVYLQMNSLKPEDTATYYCRVIDTLGAEYRGQGTQVTVSS
B2: Nb C112 (VHH)
VHH: QVQLVESGGGLVQAGGSLRLSCTASERMYGIEMGWFRQAPGKERELVAAITWSGVVSHLQESVKGRFTISRDNPKKTVYLQMNSLKPEDTATYYCAGHRLQWASGYTRHDYGSWGQGTQVTVSS

Experiments:
[1] = target: staphylococcal enterotoxin C (SEC-2), wild type (Staphylococcus aureus) (UniProt P34071); assay: ELISA
[2] = target: staphylococcal enterotoxin C (SEC-2), wild type (Staphylococcus aureus) (UniProt P34071); assay: SPR

Binder | EC50 [1] | Kd [2]
B1 | 2.5 nM | 
B2 |  | 0.179 nM
